Results on 35 molecules are retold here after patent publication US20250026849A1 (ARCELLX, published 2025).

First the molecules themselves.
T1: P26 (human, UniProt P02771 381-609, limits assumed)
T1 construct: also called AFP p26
T1 sequence: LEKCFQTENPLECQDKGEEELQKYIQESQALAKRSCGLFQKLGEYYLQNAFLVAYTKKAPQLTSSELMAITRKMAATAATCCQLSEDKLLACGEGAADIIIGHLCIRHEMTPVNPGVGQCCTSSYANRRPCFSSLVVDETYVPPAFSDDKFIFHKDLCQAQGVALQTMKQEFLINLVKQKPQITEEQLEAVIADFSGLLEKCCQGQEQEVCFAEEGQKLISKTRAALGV

B1: D domain SEQ ID NO: 932 (designed binder)
chain: MGSWADFKWTLAYIKHRLEALGGSEAELAFFEMEIAYFEQSLQNYKGKGNPEVEALRKEAAAIRDELQAYRHN
B2: D domain SEQ ID NO: 935 (designed binder)
chain: MGSWVLFKDYLADIKHYLEALGGSEAELANFEHLIANFEGDLQTYKGKGNPEVEALRKEAAAIRDELQAYRHN
B3: D domain SEQ ID NO: 937 (designed binder)
chain: MGSWEHFKVELAGIKAYLEALGGSEAELALFEWAIADFESILQDYKGKGNPEVEALRKEAAAIRDELQAYRHN
B4: D domain SEQ ID NO: 938 (designed binder)
chain: B3 chain with E5I, H6Y, V9D, A16K, L30M, W33V, S40A, D44K
B5: D domain SEQ ID NO: 921 (designed binder)
chain: MGSWHEFYDRLYAIWDRLDALGGSEAELAAFEKEIAAFESELQAYKGKGNPEVEGLRNAAAVIRIFLQAYRHN
B6: D domain SEQ ID NO: 900 (designed binder)
chain: MGSWAEFSDRLNAIDQRLWALGGSEAELAAFEKEIAAFESELQAYKGKGNPEVEILREHAAEIRKFLQAYRHN
B7: D domain SEQ ID NO: 901 (designed binder)
chain: B6 chain with A5M, S8N, D9H, N12Q, Q16G, I55M, E62A, K65A
B8: D domain SEQ ID NO: 939 (designed binder)
chain: MGSWVLFKQELAWIKWLLEALGGSEAELAAFEEQIARFEHDLQKYKGKGNPEVEALRKEAAAIRDELQAYRHN
B9: D domain SEQ ID NO: 941 (designed binder)
chain: B8 chain with V5F, Q9S, L17R, A30Y, E33Y, R37E, H40F, D41W, K44S
B10: D domain SEQ ID NO: 942 (designed binder)
chain: B8 chain with V5L, Q9S, L17Y, A30E, E33W, Q34N, R37E, H40K, D41N
B11: D domain SEQ ID NO: 943 (designed binder)
chain: B8 chain with V5L, Q9S, E10D, L17R, A30E, Q34S, R37M, D41W, K44E
B12: D domain SEQ ID NO: 944 (designed binder)
chain: MGSWLYFKSDLAWIKWRLEALGGSEAELADFEEAIAEFEQALQIYKGKGNPEVEALRKEAAAIRDELQAYRHN
B13: D domain SEQ ID NO: 940 (designed binder)
chain: B8 chain with L17Y, E33W, Q34E, R37A, H40Q, D41R, K44I
B14: D domain SEQ ID NO: 912 (designed binder)
chain: MGSWSEFVHRLDAIEVRLFALGGSEAELAAFEKEIAAFESELQAYKGKGNPEVEELRYHAAKIRSWLQAYRHN
B15: D domain SEQ ID NO: 920 (designed binder)
chain: B14 chain with V8T, H9D, D12F, V16D, F19L, E55D, Y58M, K62S, S65L
B16: D domain SEQ ID NO: 919 (designed binder)
chain: B14 chain with S5V, V8Y, E15F, V16D, F19D, Y58A, H59N, K62G
B17: D domain SEQ ID NO: 917 (designed binder)
chain: B14 chain with S5V, V8Y, D12E, V16Q, F19M, E55S, Y58E, H59Q, K62A
B18: D domain SEQ ID NO: 915 (designed binder)
chain: B14 chain with S5Y, V8Y, H9D, V16D, E55S, Y58D, H59Q, K62Y, S65T
B19: D domain SEQ ID NO: 916 (designed binder)
chain: B14 chain with S5H, V8W, H9V, D12E, V16S, E55S, Y58V, H59Q, K62H
B20: D domain SEQ ID NO: 918 (designed binder)
chain: MGSWVEFYERLNAIEYRLEALGGSEAELAAFEKEIAAFESELQAYKGKGNPEVESLREHAAYIRQWLQAYRHN
B21: D domain SEQ ID NO: 914 (designed binder)
chain: B20 chain with V5Y, E9L, N12S, Y16D, E19F, E58V, H59Q, Y62H, Q65T
B22: D domain SEQ ID NO: 913 (designed binder)
chain: B14 chain with V8Y, H9Y, D12A, V16S, E55R, Y58E, K62H, S65R
B23: D domain SEQ ID NO: 930 (designed binder)
chain: MGSWLYFKYNLAVIKHWLEALGGSEAELAIFEMSIADFEYELQWYKGKGNPEVEALRKEAAAIRDELQAYRHN
B24: D domain SEQ ID NO: 934 (designed binder)
chain: MGSWENFKDTLAWIKEYLEALGGSEAELAGFEHRIAIFEHYLQYYKGKGNPEVEALRKEAAAIRDELQAYRHN
B25: D domain SEQ ID NO: 931 (designed binder)
chain: MGSWFYFKYELAWIKHWLEALGGSEAELASFETHIAFFEHQLQYYKGKGNPEVEALRKEAAAIRDELQAYRHN
B26: D domain SEQ ID NO: 922 (designed binder)
chain: MGSWFEFSNRLYAIWHRLTALGGSEAELAAFEKEIAAFESELQAYKGKGNPEVESLRTQAAFIRILLQAYRHN
B27: D domain SEQ ID NO: 924 (designed binder)
chain: B26 chain with S8E, N9D, Y12F, H16T, T19E, T58Q, Q59S, F62S, I65W
B28: D domain SEQ ID NO: 923 (designed binder)
chain: B26 chain with N9D, H16E, T19D, T58F, I65Y, L66Q
B29: D domain SEQ ID NO: 925 (designed binder)
chain: MGSWHEFSERLFAIWTRLEALGGSEAELAAFEKEIAAFESELQAYKGKGNPEVEALRQSAAFIRVMLQAYRHN
B30: D domain SEQ ID NO: 933 (designed binder)
chain: MGSWAYFKGQLAYIKSGLEALGGSEAELAYFELRIAYFEHWLQNYKGKGNPEVEALRKEAAAIRDELQAYRHN
B31: D domain SEQ ID NO: 936 (designed binder)
chain: MGSWSLFKHRLANIKVYLEALGGSEAELADFETFIAYFEKDLQEYKGKGNPEVEALRKEAAAIRDELQAYRHN
B32: D domain SEQ ID NO: 929 (designed binder)
chain: MGSWHHFKYFLADIKSILEALGGSEAELAIFEVQIAYFEDLLQSYKGKGNPEVEALRKEAAAIRDELQAYRHN
B33: D domain SEQ ID NO: 928 (designed binder)
chain: MGSWSIFKYHLADIKLLLEALGGSEAELAYFEFLIADFEFTLQDYKGKGNPEVEALRKEAAAIRDELQAYRHN
B34: D domain SEQ ID NO: 927 (designed binder)
chain: MGSWYEFDHRLMAISFRLVALGGSEAELAAFEKEIAAFESELQAYKGKGNPEVETLRRRAANIRHLLQAYRHN
B35: D domain SEQ ID NO: 926 (designed binder)
chain: MGSWGEFTVRLYAIDRRLDALGGSEAELAAFEKEIAAFESELQAYKGKGNPEVEELRRFAAIIRAFLQAYRHN

Numbering of substitutions follows the chain as printed.

The assay concerns the target T1, P26. Put plainly: ELISA, format not described. Set-up: unit not given here. For orientation: In an ELISA, binding on a coated surface is turned into a signal by an enzyme label.
On to B1, for which the ELISA_avg worked out at 31.5. With B2 the figure was 13.8; with B3, 18.1. With B4 the figure was 15.9. For the molecule B5, the ELISA_avg came out at 22.9.

As to B6, the ELISA_avg stood at 25.3. As to B7, the ELISA_avg is 33.4. As to B8, the ELISA_avg was found to be 29.5. With B9 the figure was 25.8. Molecule B10 registered an ELISA_avg of 25.7.

Take B11: the ELISA_avg stood at 33.3.

As to B12, the ELISA_avg amounted to 21.2. With B13 the figure was 22.5; with B14, 16.9. With B15, the ELISA_avg turned out to be 25.4. With B16 the figure was 20; with B17, 28.5; with B18, 31.9. With B19 the figure was 26.9.

Take B20: the ELISA_avg was determined as 28.7. With B21 the figure was 27.4; with B22, 30.8; with B23, 13.3. In the case of B24, the ELISA_avg worked out at 19.2. With B25 the figure was 13.7; with B26, 15.2; with B27, 10.9. With B28 the figure was 19. As to B29, the ELISA_avg was 8.21. With B30, the ELISA_avg was determined as 11.4. For B31, the ELISA_avg was determined as 19.6. For the molecule B32, the ELISA_avg was 8.

The molecule B33 showed an ELISA_avg of 20.2. With B34 the figure was 20.1. With B35 the figure was 8.54.
